Values belong to the binder of their own block, whether it stands above or below them.
Target: T1, 人IL-6重组蛋白 (human, UniProt P05231 30-212, limits assumed)
T1 construct: also called 白细胞介素-6; 白介素6
Experiment: indirect ELISA, IL-6 recombinant protein coated at 2 μg/ml, purified antibody from 10 μg/ml in 3-fold dilutions, HRP goat anti-mouse IgG

- EC50: < 0.025 µg/mL
B1: 抗人IL-6单克隆抗体 克隆019:8-3F8 (antibody, V domains shown)
VH: EVKLEESGGGLVQPGGSMKLSCAASGFTFSNYWMNWVRQSPEKGLEWVAEIRLRSNKYATHYAESVRGRFTISRDDSINYVYLQMNNLRAEDTGIYYCTRPRYEGTFDVWGAGTTVTVSS
VL: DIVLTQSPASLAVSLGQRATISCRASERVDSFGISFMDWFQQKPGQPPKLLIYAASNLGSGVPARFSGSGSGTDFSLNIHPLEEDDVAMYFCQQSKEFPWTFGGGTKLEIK

- EC50: < 0.025 µg/mL
B2: 抗人IL-6单克隆抗体 克隆019:1-2H3 (antibody, V domains shown)
VH: QVQLQQSGPQLVRPGASVKISCKASGYSFNRSWMHWVKQRPGQGLEWIGMIDPSDTETRLNQKFKDKATLTVDESSSTAHMQFKRPTSEDSAVYYCARAYGFSIEFAYWGQGTLVTVSA
VL: DIQMSQTSSSLPASLGDRVTISCKASQDIRSYLNWYQQKPDGTVKLLIYYTSRLHSGVPSRFSGSGSGTDFSLTISNLEQEDIATYFCQQGATLPLTFGAGTKLELK

— patent publication CN112279913A (TAIZHOU BAIYING BIOLOGICAL TECH CO LTD, dated 2021)
